{"source": "paper PMC9738047", "about": "(International Journal of Molecular Sciences, 2022)", "biological_target": "the molecule itself", "experiment": "crystal structure; anti-IL-17A-76 and IL-17A mixed at molar ratio 2.3:1, complex isolated on Superdex G-75; vapor diffusion at 297 K; 2.85 A; molecular replacement with 4HSA and 6QKD"}
{"protein": "IL-17A (interleukin-17A) without N-signal sequence, double mutation N68D/C129S (ligand, UniProt Q16552 24-155, looked up, Dimer in the crystal (monomer in the asymmetric unit, molecules A and A*); also called the cytokine) GITIPRNPGCPNSEDKNFPRTVMVNLNIHNRNTNTNPKRSSDYYDRSTSPWNLHRNEDPERYPSVIWEAKCRHLGCINADGNVDYHMNSVPIQQEILVLRREPPHSPNSFRLEKILVSVGCTCVTPIVHHVA", "values": [{"measurement": "binding result", "value": "binds"}]}
